# Data published in IntAct's records for PubMed 22854040.
# B1: Ras-related protein Rab-8A (Homo sapiens), P61006 (parent)
# chain: MAKTYDYLFKLLLIGDSGVGKTCVLFRFSEDAFNSTFISTIGIDFKIRTIELDGKRIKLQIWDTAGQERFRTITTAYYRGAMGIMLVYDITNEKSFDNIRNWIRNIEEHASADVEKMILGNKCDVNDKRQVSKERGEKLALDYGIKFMETSAKANINVENAFFTLARDIKAKMDKKLEGNSPQGSNQGVKITPDQQKRSSFFRCVLL
# Variants of: B1
# Conditions: with tfr1_human TFRC
row,effect of a mutation on the interaction,Variant
1,decreasing interaction,T22N
